According to patent US20060029546A1 (DECODE GENETICS, published 2006):

Assays:
[1] = target: T1, ErbB4 K751A bait (cytoplasmic domain, mutation in the ATP binding site) (human, UniProt Q15303 676-1308); test: yeast two-hybrid growth assay
T1 construct: not shown: fusion partner encoded by the bait vector
Excerpt: (§1) To characterize components of the NRG1 signaling pathway downstream of the ErbB4 receptor tyrosine kinase, the predominant neuronal receptor for NRG1, the cytoplasmic domain of ErbB4 was used as a bait in a yeast two-hybrid interaction screen. The ErbB4 bait was created by cloning the entire cytoplasmic domain into the vector pGBKT7 (Clontech, Palo Alto, Calif.) using homologous recombination in the yeast strain AH109 (Clontech, Palo Alto, Calif.). Liner vector and the cytoplasmic fragment of ErbB4 were transfected into the yeast strain using the lithium acetate (LiAc) method and plated onto […] negative selection media plates. Plasmid DNA was isolated from positive colonies and the presence of ErbB4 was verified by sequencing.
(§2) The ErbB4 bait was capable of tyrosine auto-phosphorylation in yeast cells. Tyrosine phosphorylation was absent from ErbB4 baits which contained mutations in the ATP binding site (K751A) or the catalytic site (D843A). Homo sapiens random prime hippocampus cDNA library was created using the ZAP-cDNA Gigapack III Gold Cloning Kit (Stratagene) and transformed into yeast using Li Acetate. Screening of a human hippocampus cDNA library yielded a partial cDNA clone comprising the SH2 and SH3 domains of Fyn (amino acids 60-252 of SEQ ID NO: 3). SH2 domains are protein modules able to bind phosphorylated tyrosine residues. […]

[2] = target: T2, ErbB4 D843A bait (cytoplasmic domain, mutation in the catalytic site) (human, UniProt Q15303 676-1308); test: yeast two-hybrid growth assay
T2 construct: not shown: fusion partner encoded by the bait vector
Excerpt: as §1, §2

B1: partial cDNA clone comprising the SH2 and SH3 domains of Fyn (amino acids 60-252) (enzyme)
chain: not shown
notes: The clone came from a human hippocampus cDNA library; also called Fyn clone; p59Fyn; not shown: fusion partner of the yeast two-hybrid library (prey) vector
B1: no binding [1]; no binding [2].
